Read-outs that look alike come from different tables or passages of the source.
B1: eSrtA(4S-5): 5mut + N98D A104V A118T F122A K134R I182V (protein)
chain: QAKPQIPKDKSKVAGYIEIPDADIKEPVYPGPATREQLDRGVSFVEENESLDDQNISITGHTAIDRPNYQFTNLRAAKKGSMVYFKVGNETRKYKMTSIRNVKPTAVEVLDEQKGKDKQLTLVTCDDYNEETGVWETRKIFVATEVK
B2: 4S.6B: 5mut + N98D A104V A118S F122A K134P I182V E189P (protein)
chain: QAKPQIPKDKSKVAGYIEIPDADIKEPVYPGPATREQLDRGVSFVEENESLDDQNISISGHTAIDRPNYQFTNLPAAKKGSMVYFKVGNETRKYKMTSIRNVKPTAVEVLDEQKGKDKQLTLVTCDDYNPETGVWETRKIFVATEVK
B3: eSrtA(4S-3): round 3 LPESG clone: eSrtA + N98S A104T A118T F122S D124G K134R K173E K177E I182V (protein)
chain: QAKPQIPKDKSKVAGYIEIPDADIKEPVYPGPATREQLSRGVSFTEENESLDDQNISITGHTSIGRPNYQFTNLRAAKKGSMVYFKVGNETRKYKMTSIRNVKPTAVEVLDEQEGKDEQLTLVTCDDYNEETGVWETRKIFVATEVK
B4: eSrtA(4S-3.5) (protein)
chain: QAKPQIPKDKSKVAGYIEIPDADIKEPVYPGPATREQLNRGVSFTEENESLDDQNISITGHTFIDRPNYQFTNLKAAKKGSMVYFKVGNETRKYKMTSIRNVKPTAVEVLDEQKGKDKQLTLVTCDDYNEETGVWETRKIFVATEVK
B5: eSrtA(4S-4): 5mut + A104V A118T F122S I182V (protein)
chain: QAKPQIPKDKSKVAGYIEIPDADIKEPVYPGPATREQLNRGVSFVEENESLDDQNISITGHTSIDRPNYQFTNLKAAKKGSMVYFKVGNETRKYKMTSIRNVKPTAVEVLDEQKGKDKQLTLVTCDDYNEETGVWETRKIFVATEVK
B6: eSrtA(2A-6): round 6 consensus variant targeting LAETG; kinetics close to 2A.6A (protein)
chain: QAKPQIPKDKSKVAGYIEIPDADIKEPVYPGPATREQLNRGVSFHEENESLDDQNISIAGHTFIDRPNYQFTNLKAAKVGSMVYFKVGNETRKYKMTSIRNVRPTAVEVLDEQKGKDKQLTLVTCDDYNEETGVWETRKIFVATEVK
B7: eSrtA(4S-6): round 6 consensus variant targeting LPESG (protein)
chain: QAKPQIPKDKSKVAGYIEIPDADIKEPVYPGPATREQLDRGVSFVEENESLDDQNISISGHTAIDRPNYQFTNLGAAKKGSMVYFKVGNETRKYKMTSIRNVKPTAVEVLDEQKGKDKQLTLVTCDDYNVETGVWETRKIFVATEVK
B8: 2A.6A: 5mut + A104H K138V K162R I182V (protein)
chain: QAKPQIPKDKSKVAGYIEIPDADIKEPVYPGPATREQLNRGVSFHEENESLDDQNISIAGHTFIDRPNYQFTNLKAAKVGSMVYFKVGNETRKYKMTSIRNVRPTAVEVLDEQKGKDKQLTLVTCDDYNEETGVWETRKIFVATEVK

Legend:
Type in all cases: biochemical
[1] = test system: LPESG (Abz-LPESGK(Dnp)-CONH2); test: In vitro sortase kinetics HPLC assay, LPESG substrate; conditions: for KH (KH,LPESG): LPESG substrate; for Specificity / preference for LPESG over LPETG: ratio of kcat/KM; for Specificity: 4S (LPESG) over wt (LPETG); for specificity (relative cat. Efficiency, fold): ratio of kcat/Km between 4S (LPESG) and wt (LPETG) substrates; for kHydrolysis (Hz): 1 mM
Experimental: (§1) See below for details on sortase expression and purification, and on the synthesis of Abz-LPETGK(Dnp)-CONH2 (SEQ ID NO: 19). […] Reactions were initiated with the addition of enzyme and incubated at 22.5° C. for 3 to 20 minutes before quenching with 0.5 volumes of 1 M HCl. Five to ten nmol of peptide from the quenched reactions were injected onto an analytical reverse-phase Eclipse XDB-C18 HPLC column (4.6×150 mm, 5 μm, Agilent Technologies) and chromatographed using a gradient of 10 to 65% acetonitrile with 0.1% TFA in 0.1% aqueous TFA over 13 minutes. Retention times under these conditions for the Abz-LPETGK(Dnp)-CONH2 (SEQ ID NO: 19) substrate, the released GKDnp peptide, and the Abz-LPETGGG-COOH (SEQ ID NO: 20) product were 12.8, 10.4, and 9.1 min, respectively. To calculate the percent conversion, the ratio of the integrated areas of the Abz-LPETGGG-COOH (SEQ ID NO: 20) and Abz-LPETGK(Dnp)-CONH2 (SEQ ID NO: 19) peptide Abs220 peaks was compared to a standard curve generated by mixing the product and starting peptide in known ratios. To determine […] and Km, reaction rates were fit to the Michaelis-Menten equation using OriginPro 7.0 software. All kinetics values reported represent the average of at least three measurements. Percent conversion was also calculated by using the ratio of the integrated areas of the GK(Dnp)-CONH2 and Abz-LPETGK(Dnp)-CONH2 peptide Abs355 peaks were compared directly (Example 5). To determine kcat and Km, LPETG, reaction rates were fit to the Michaelis-Menten equation using Microsoft Excel using the Solver add-in. To determine Km,GGG and KH, reaction rates were fit to the modified Michaelis-Menten, for which KH is as defined when KH<<Km,GGG.
(§2) Assays to determine eSrtA, eSrtA(2A-9) and eSrtA(4S-9) specificity were performed by preparing 10 μM stocks of Abz-LXEXGK(Dnp) (SEQ ID NO: 75) peptides in 300 mM Tris pH 7.5, 150 mM NaCl, 5 mM CaCl2, 5% v/v DMSO, and 100 mM Gly-Gly-Gly-COOH (GGG). Reactions were performed by adding eSrtA(2A-9) to a final concentration of 450 nM, eSrtA(4S-9) to a final concentration of 115 nM or eSrtA to a final concentration of 47.5 nM and a final volume of 100 μL, then incubating at 22.5° C. for 15 minutes. Reactions were quenched by the addition of 0.2 volumes of 5 M HCl, then were injected onto an analytical reverse-phase Eclipse XDB-C18 HPLC column (4.6×150 mm, 5 μm, Agilent Technologies) and chromatographed using a gradient of 10 to 65% acetonitrile with 0.1% TFA in 0.1% aqueous TFA over 13 minutes. Retention times under these conditions for the Abz-LPETGK(Dnp)-CONH2 (SEQ ID NO: 19) substrate, the released GKDnp peptide, and the Abz-LPETGGG-COOH (SEQ ID NO: 20) product were 12.8, 10.4, and 9.1 min, respectively, while the remaining Abz-LXEXGK(Dnp)-CONH2 (SEQ ID NO: 74) substrates varied in retention time between 9 and 13 minutes. To calculate the percent conversion, the ratio of the integrated areas of the GK(Dnp)-CONH2 and Abz-LPETGK(Dnp)-CONH2 (SEQ ID NO: 19) peptide Abs355 peaks were compared directly. Subsequent determination of kcat/Km and KH were performed as described for in vitro SrtA characterization.
(§3) In each case, rate constants were determined by measuring enzyme velocity at eight different substrate concentrations by HPLC assay, then fit using nonlinear regression to the Michaelis-Menten equation, yielding kcat and Km. KH was calculated by measuring enzyme velocity at 1 mM target substrate and eight different GGG concentrations by HPLC assay, then fitting the resulting curves using nonlinear regression to the modified Michaelis-Menten equation.

[2] = test system: LPETG (Abz-LPETGK(Dnp)-CONH2); test: In vitro sortase kinetics HPLC assay, LPETG substrate; conditions: substrate wt (LPETG)
Experimental: as §1, §2, §3

[3] = test system: LAETG (Abz-LAETGK(Dnp)-CONH2); test: In vitro sortase kinetics HPLC assay, LAETG substrate
Experimental: as §1, §2, §3

[4] = 1 mM 4S (LPESG) substrate, GGG varied
[5] = 1 mM 4S (LPESG) substrate, read-out: Km, GGG
[6] = Example 5 variants, substrate 4S (LPESG)
[7] = Example 5 variants, substrate 4S (LPESG), read-out: Avg KM
[8] = substrate 4S (LPESG), GGG varied
[9] = substrate 4S (LPESG), read-out: Km, LxExG
[10] = Example 5 variants, read-out: Avg KM
[11] = GGG varied, substrate 2A (LAETG)
[12] = GGG varied, substrate 4S (LPESG)

Row | Molecule | Avg kcat (Hz) [1, 6] [Hz] | Km [1, 7] [µM] | Specificity [1] | specificity (relative cat. Efficiency, fold) [1] [fold] | kcat, 10 mM GGG (Hz) ([1]; substrate 4S (LPESG)) | Km [1, 9] [µM] | Avg kcat (Hz) ([2]; Example 5 variants) | Km [2, 10] [µM] | kcat, 10 mM GGG (Hz) [2] [Hz] | Km ([2]; read-out: Km, LxExG) [µM] | further results
1 | B1 | 0.3877 | 76 | 9.672 | 9.999 | 0.3877 | 76 | 0.00606 | 11.7 | 0.006149 | 12.2 | Khydrolysis ([1]; 1 mM 4S (LPESG) substrate): 190.8 µM; kcat, 1 mM LxExG (Hz) [1, 4]: 1.342 Hz; Km [1, 5]: 26700 µM; increase in kcat/Km for LPESG as compared to LPETG ([1]; FIG. 2): ~2 fold; increased affinity (KM) for the LPESG substrate as compared to the LPETG substrate ([1]; FIG. 2): ~8 fold; KH (KH,LPESG) [1]: 190 ± 16 µM; kL/KL/KH ([1]; substrate 4S (LPESG)): 2.69E+07; kHydrolysis (Hz) [1, 8]: 0.009551 Hz
2 | B2 | – | – | – | 0.9102 | 1.242 | 312 | – | – | 1.081 | 238 | Khydrolysis ([1]; 1 mM 4S (LPESG) substrate): 122.3 µM; kcat, 1 mM LxExG (Hz) [1, 4]: 2.132 Hz; Km [1, 5]: 15700 µM; increased affinity (KM) for the LPESG substrate as compared to the LPETG substrate ([1]; FIG. 2): ~2 fold; kL/KL/KH ([1]; substrate 4S (LPESG)): 3.38E+07; kHydrolysis (Hz) [1, 8]: 0.0167 Hz
3 | B3 | 2.543 | 3330 | 244.976 | – | – | – | 0.007565 | 3390 | – | – | preference for LPESG over LPETG [1]: 245 fold; reduced catalytic efficiency ([1]; round 3 clone, LPESG target): > 10 fold
4 | B4 | 5.779 | 38800 | 1.454 | – | 1.118 | 7310 | 5.482 | 39300 | – | – | lower activity than that of eSrtA on its native LPETG substrate ([1]; minimal mutant, LPETG and LPESG processed): ~100 fold
5 | B5 | 0.7574 | 1560 | 2.224 | 1.823 | 0.7269 | 1410 | 0.1073 | 491 | 0.09571 | 339 | preference for LPESG over LPETG [1]: 2 fold
6 | B6 | – | – | – | – | – | – | 0.1622 | 3400 | – | – | Avg kcat (Hz) ([3]; Example 5 variants, substrate 2A (LAETG)): 2.579 Hz; Km ([3]; Example 5 variants, substrate 2A (LAETG), read-out: Avg KM): 665 µM; KH ([3]; GGG concentration at which hydrolysis and transpeptidation rates are equal, 2A (LAETG) variant): 149 ± 63 µM; Avg kHydro (Hz) [3, 11]: 0.2347 Hz; Avg kcat (Hz) [3, 11]: 1.734 Hz; Km ([3]; KM for GGG, substrate 2A (LAETG), read-out: Avg KM): 1110 µM; Specificity (relative catalytic efficiency, fold) ([3]; ratio of kcat/KM between 2A (LAETG) and wt (LPETG)): 82.4 fold; Avg KH ([3]; substrate 2A (LAETG)): 148.9406 µM
7 | B7 | 0.9425 | 125 | 8.094 | – | – | – | 0.9657 | 1040 | – | – | Avg kHydro (Hz) [1, 12]: 0.01782 Hz; Avg kcat (Hz) [1, 12]: 2.004 Hz; Km ([1]; KM for GGG, substrate 4S (LPESG), read-out: Avg KM): 13100 µM; KH (KH,LPESG) [1]: 116 ± 10 µM; Avg KH ([1]; substrate 4S (LPESG)): 116.3542 µM
8 | B8 | – | – | – | – | – | – | – | – | 0.1572 | 3290 | Khydrolysis ([3]; 1 mM 2A (LAETG) substrate): 135.8 µM; kcat, 1 mM LxExG (Hz) ([3]; 1 mM 2A (LAETG) substrate, GGG varied): 1.714 Hz; Km ([3]; 1 mM 2A (LAETG) substrate, read-out: Km, GGG): 1040 µM; specificity (relative cat. Efficiency, fold) ([3]; ratio of kcat/Km between 2A (LAETG) and wt (LPETG) substrates, favoured over disfavoured): 86.36 fold; kL/KL/KH ([3]; substrate 2A (LAETG)): 3.04E+07; kHydrolysis (Hz) ([3]; substrate 2A (LAETG), 1 mM, GGG varied): 0.2252 Hz; kcat, 10 mM GGG (Hz) ([3]; substrate 2A (LAETG), 10 mM GGG): 2.47 Hz; Km ([3]; substrate 2A (LAETG), read-out: Km, LxExG): 608 µM

Reference: patent US10202593B2, “Evolved sortases and uses thereof” (President and Fellows of Harvard College, priority 2013, dated 2019)
